The Kd is a measure of binding affinity in units of concentration. By kcat is commonly meant the number of substrate molecules converted per active site and unit of time at saturation. What is called Vmax is the top rate of the reaction or transport when substrate is in excess.

For data set [1], the target named is T1, N4posG321V (Abl kinase domain hinge mutant) (Homo sapiens, UniProt P00519, G321V).
T1 construct: His10-TEV (N, cleaved yes); made in house; host or cells: E. coli BL21(DE3)pLysS, co-expressed with YopH phosphatase
T1 sequence (P00519 229-512 G321V): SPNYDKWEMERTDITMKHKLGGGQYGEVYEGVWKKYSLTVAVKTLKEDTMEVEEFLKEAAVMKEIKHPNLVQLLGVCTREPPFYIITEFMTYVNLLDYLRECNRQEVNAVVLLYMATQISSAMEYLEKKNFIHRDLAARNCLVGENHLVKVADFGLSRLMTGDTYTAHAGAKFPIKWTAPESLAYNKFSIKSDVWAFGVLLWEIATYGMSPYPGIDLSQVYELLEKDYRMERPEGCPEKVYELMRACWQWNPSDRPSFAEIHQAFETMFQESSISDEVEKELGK
Description: ClyA-AS nanopore tweezers single-channel current recording: ligand binding to N4posG321V.

The target in another data set is Abl kinase. Particulars: read-out: reported KD of ATP; cited from earlier work.
Data set [2] concerns the target T2, N4posAbl (Abl kinase domain with N-terminal KRKKSGG tag) (Homo sapiens, UniProt P00519).
T2 sequence (P00519 229-512): T1 sequence (P00519 229-512 G321V) with V93G
Description: ClyA-AS nanopore tweezers single-channel current recording: ligand binding to N4posAbl.

For data set [3], the target named is T3, N4posAbl: wildtype Abl kinase domain (residues 229-512) with a positively charged peptide tail (N4pos tag, … (human, UniProt P00519 229-512)).
T3 sequence (looked up): T1 sequence (P00519 229-512 G321V) with V93G
Description: ClyA nanopore tweezers (single-channel current recording); single Abl kinase molecule trapped in a ClyA-AS nanopore in a DPhPC bilayer; Abltide titrated with 10 mM MgCl2; occupancy of the bound state against concentration fitted with a single site binding model; -80 mV, 150 mM NaCl, 100 mM Tris-HCl, pH 7.5, 22 °C, ~100 nM kinase in cis. The following applies: both partners purified.

Data set [4] has as its target T4, N4posG321V: Abl kinase domain (residues 229-512) hinge mutant G321V with the N4pos tag (KRKKSGG) at its … (human, UniProt P00519 229-512, G321V).
T4 construct: also called Abl G321V
T4 sequence (looked up): T1 sequence (P00519 229-512 G321V)
Described as above. The following applies: both partners purified.

Data set [5] concerns the target T5, kinase substrate peptide Abltide (Homo sapiens, UniProt P00519).
T5 sequence (P00519 229-512): T1 sequence (P00519 229-512 G321V) with V93G
Briefly: Enzyme-coupled Abl kinase assay (NADH consumption), Michaelis-Menten kinetics. The format is biochemical. As to the method:
(§1) Absorbance at 340 nm was monitored with a microtiter plate spectrophotometer (BioTek Synergy 2) for 30 min. The background kinase activity was determined in the reaction mix without the substrate peptide and subtracted from the experiments with the substrate peptide. To obtain the enzyme kinetics, initial phosphorylation rates at different substrate peptide concentrations (50~800 µM) were measured. Plots of the initial rate as a function of peptide substrate concentration were fit by nonlinear regression to obtain the Michaelis-Menten kinetic parameters.

Data set [6] has as its system kinase substrate peptide Abltide. The data set is described as above. It is filed as biochemical. The following applies: for Vmax / kcat: Abltide 50~800 µM, […] ATP, 30 nM kinase, 30 °C; for catalytic activity: Michaelis-Menten kinetic analysis. The protocol:
as §1

Data set [7] is described as follows: Conformational state analysis of apo Abl kinases in ClyA-AS nanopore (S1/S2 and S1 sub-state dwell times, populations, rate constants, free energy). Also noted: species or system human.

Positions count from the first letter of the chain named. Names and notes keep the numbering of the source.

For the molecule ATP, the “effect on N4posG321V current trace” value in data set [1] was “did not trigger any change in the current trace”. Also, the Kd on Abl kinase was 69 ± 4 µM.

Consider `[Cl-].[Cl-].[Mg+2]` [MgCl2], for which the “effect on N4posAbl current signal / conformational states” value in data set [2] was “did not trigger any noticeable change”.

Take KKGEAIYAAPFA (Abl substrate peptide Abltide) [kinase substrate peptide Abltide]: the Kd in data set [3] turned out to be 69.9 ± 13 µM; in data set [4] it was 257 ± 55.9 µM.

B1: Abl: wildtype Abl kinase domain (residue 229-512) (protein)
chain: T1 sequence (P00519 229-512 G321V) with V93G
For the molecule B1, the kcat came to 7.1 ± 0.7 s⁻¹ in data set [5] and 7.112 ± 0.717 s⁻¹ in data set [6]. Further, the maximal velocity (Vmax) in data set [6] is 12.8 ± 1.3 µM/min.

B2: N4posAbl: Abl kinase domain with positively charged peptide tail KRKKSGG at its N-terminus (protein)
chain: T1 sequence (P00519 229-512 G321V) with V93G
In data set [7] (N4posAbl, pore #1, single S1 dwell events), B2 showed a τS1 of 443.75 ms. In data set [7] (N4posAbl, pore #3, single S1 dwell events), this molecule yielded a τS1 of 1114.75 ms. Further, in data set [7] (N4posAbl, pore #3, single S2 dwell events), the τS2 came to 3255.5 ms. For the same molecule, in data set [6], the maximal velocity (Vmax) was found to be 13.3 ± 1.1 µM/min, the catalytic constant (kcat) worked out at 7.395 ± 0.585 s⁻¹ and the catalytic activity entry was “no influence on the catalytic activity”.

B3: N4posG321V: N4posAbl hinge mutant G321V intended to enhance rigidity; catalytically inactive (protein)
chain: T1 sequence (P00519 229-512 G321V)
As to B3, the τS1 in data set [7] (N4posG321V, 16 pores, single S1 dwell events) was determined as 1005.56 ms. Moreover, the “τS1 (ms), 16 pores” value in data set [7] (N4posG321V, individual S1 dwell times, 16 pores) is recorded as 214.2 ms. Further, in data set [6], the catalytic activity entry is “abrogated the catalytic activity”.

These data come from publication PMC9209526 (Nature Communications, 2022).
